According to US20130039933:

Tests used:
[1] = target: S366 peptide (STING peptide substrate with serine 366)
[2] = target: A366 peptide (STING peptide substrate with alanine at 366)

B1: ULK1 (protein)
chain: MEPGRGGTETVGKFEFSRKDLIGHGAFAVVFKGRHREKHDLEVAVKCINKKNLAKSQTLLGKEIKILKELKHENIVALYDFQEMANSVYLVMEYCNGGDLADYLHAMRTLSEDTIRLFLQQIAGAMRLLHSKGIIHRDLKPQNILLSNPAGRRANPNSIRVKIADFGFARYLQSNMMAATLCGSPMYMAPEVIMSQHYDGKADLWSIGTIVYQCLTGKAPFQASSPQDLRLFYEKNKTLVPTIPRETSAPLRQLLLALLQRNHKDRMDFDEFFHHPFLDASPSVRKSPPVPVPSYPSSGSGSSSSSSSTSHLASPPSLGEMQQLQKTLASPADTAGFLHSSRDSGGSKDSSCDTDDFVMVPAQFPGDLVAEAPSAKPPPDSLMCSGSSLVASAGLESHGRTPSPSPPCSSSPSPSGRAGPFSSSRCGASVPIPVPTQVQNYQRIERNLQSPTQFQTPRSSAIRRSGSTSPLGFARASPSPPAHAEHGGVLARKMSLGGGRPYTPSPQVGTIPERPGWSGTPSPQGAEMRGGRSPRPGSSAPEHSPRTSGLGCRLHSAPNLSDLHVVRPKLPKPPTDPLGAVFSPPQASPPQPSHGLQSCRNLRGSPKLPDFLQRNPLPPILGSPTKAVPSFDFPKTPSSQNLLALLARQ
[1]
  Activity (cpm): 209000 cpm
  Fold induction: 17.1 fold
[2]
  Activity (cpm): 12200 cpm

B2: ULK2 (protein)
chain: MEVVGDFEYSKRDLVGHGAFAVVFRGRHRQKTDWEVAIKSINKKNLSKSQILLGKEIKILKELQHENIVALYDVQELPNSVFLVMEYCNGGDLADYLQAKGTLSEDTIRVFLHQIAAAMRILHSKGIIHRDLKPQNILLSYANRRKSSVSGIRIKIADFGFARYLHSNMMAATLCGSPMYMAPEVIMSQHYDAKADLWSIGTVIYQCLVGKPPFQANSPQDLRMFYEKNRSLMPSIPRETSPYLANLLLGLLQRNQKDRMDFEAFFSHPFLEQGPVKKSCPVPVPMYSGSVSGSSCGSSPSCRFASPPSLPDMQHIQEENLSSPPLGPPNYLQVSKDSASTSSKNSSCDTDDFVLVPHNISSDHSCDMPVGTAGRRASNEFLVCGGQCQPTVSPHSETAPIPVPTQIRNYQRIEQNLTSTASSGTNVHGSPRSAVVRRSNTSPMGFLRPGSCSPVPADTAQTVGRRLSTGSSRPYSPSPLVGTIPEQFSQCCCGHPQGHDSRSRNSSGSPVPQAQSPQSLLSGARLQSAPTLTDIYQNKQKLRKQHSDPVCPSHTGAGYSYSPQPSRPGSLGTSPTKHLGSSPRSSDWFFKTPLPTIIGSPTKTTAPFKIPKTQASSNLLALVTRHGPAEE
[1]
  Activity (cpm): 156000 cpm
  Fold induction: 21.1 fold
[2]
  Activity (cpm): 7380 cpm

B3: GRK7 (protein)
chain: MVDMGALDNLIANTAYLQARKPSDCDSKELQRRRRSLALPGLQGCAELRQKLSLNFHSLCEQQPIGRRLFRDFLATVPTFRKAATFLEDVQNWELAEEGPTKDSALQGLVATCASAPAPGNPQPFLSQAVATKCQAATTEEERVAAVTLAKAEAMAFLQEQPFKDFVTSAFYDKFLQWKLFEMQPVSDKYFTEFRVLGKGGFGEVCAVQVKNTGKMYACKKLDKKRLKKKGGEKMALLEKEILEKVSSPFIVSLAYAFESKTHLCLVMSLMNGGDLKFHIYNVGTRGLDMSRVIFYSAQIACGMLHLHELGIVYRDMKPENVLLDDLGNCRLSDLGLAVEMKGGKPITQRAGTNGYMAPEILMEKVSYSYPVDWFAMGCSIYEMVAGRTPFKDYKEKVSKEDLKQRTLQDEVKFQHDNFTEEAKDICRLFLAKKPEQRLGSREKSDDPRKHHFFKTINFPRLEAGLIEPPFVPDPSVVYAKDIAEIDDFSEVRGVEFDDKDKQFFKNFATGAVPIAWQEEIIETGLFEELNDPNRPTGCEEGNSSKSGVCLLL
[1]
  Activity (cpm): 13100 cpm
  Fold induction: 1.81 fold
[2]
  Activity (cpm): 7260 cpm

B4: TBK1 (protein kinase of the kinase panel) (protein)
chain: MQSTSNHLWLLSDILGQGATANVFRGRHKKTGDLFAIKVFNNISFLRPVDVQMREFEVLKKLNHKNIVKLFAIEEETTTRHKVLIMEFCPCGSLYTVLEEPSNAYGLPESEFLIVLRDVVGGMNHLRENGIVHRDIKPGNIMRVIGEDGQSVYKLTDFGAARELEDDEQFVSLYGTEEYLHPDMYERAVLRKDHQKKYGATVDLWSIGVTFYHAATGSLPFRPFEGPRRNKEVMYKIITGKPSGAISGVQKAENGPIDWSGDMPVSCSLSRGLQVLLTPVLANILEADQEKCWGFDQFFAETSDILHRMVIHVFSLQQMTAHKIYIHSYNTATIFHELVYKQTKIISSNQELIYEGRRLVLEPGRLAQHFPKTTEENPIFVVSREPLNTIGLIYEKISLPKVHPRYDLDGDASMAKAITGVVCYACRIASTLLLYQELMRKGIRWLIELIKDDYNETVHKKTEVVITLDFCIRNIEKTVKVYEKLMKINLEAAELGEISDIHTKLLRLSSSQGTIETSLQDIDSRLSPGGSLADAWAHQEGTHPKDRNVEKLQVLLNCMTEIYYQFKKDKAERRLAYNEEQIHKFDKQKLYYHATKAMTHFTDECVKKYEAFLNKSEEWIRKMLHLRKQLLSLTNQCFDIEEEVSKYQEYTNELQETLPQKMFTASSGIKHTMTPIYPSSNTLVEMTLGMKKLKEEMEGVVKELAENNHILERFGSLTMDGGLRNVDCL
[1]
  Activity (cpm): 16700 cpm
  Fold induction: 2.52 fold
[2]
  Activity (cpm): 6600 cpm
